Laboratory results: article PMC4829420, “The innate immune sensor IFI16 recognizes foreign DNA in the nucleus by scanning along the duplex” (eLife, 2015)

Target: the molecule itself
Assay: single-molecule fluorescence imaging (TIRF) with intensity analysis; Cy5-labelled IFI16 (3 to 5 nM) supplied under constant flow (20 ul/min) to single-biotinylated lambda dsDNA anchored on a coverslip; number of molecules per cluster from particle intensity against single molecules at 1 nM; 40 mM HEPES pH 7.4, 160 mM KCl, 1 mM EDTA, 2 mM DTT, 10% glycerol, 0.1% Triton-X100, 250 ug/ml BSA; room temperature

B1: Human full-length IFI16 (interferon-inducible protein 16) (natural protein, UniProt Q16666 1-785, looked up)
chain: MGKKYKNIVLLKGLEVINDYHFRMVKSLLSNDLKLNLKMREEYDKIQIADLMEEKFRGDAGLGKLIKIFEDIPTLEDLAETLKKEKLKVKGPALSRKRKKEVDATSPAPSTSSTVKTEGAEATPGAQKRKKSTKEKAGPKGSKVSEEQTQPPSPAGAGMSTAMGRSPSPKTSLSAPPNSSSTENPKTVAKCQVTPRRNVLQKRPVIVKVLSTTKPFEYETPEMEKKIMFHATVATQTQFFHVKVLNTSLKEKFNGKKIIIISDYLEYDSLLEVNEESTVSEAGPNQTFEVPNKIINRAKETLKIDILHKQASGNIVYGVFMLHKKTVNQKTTIYEIQDDRGKMDVVGTGQCHNIPCEEGDKLQLFCFRLRKKNQMSKLISEMHSFIQIKKKTNPRNNDPKSMKLPQEQRQLPYPSEASTTFPESHLRTPQMPPTTPSSSFFTKKSEDTISKMNDFMRMQILKEGSHFPGPFMTSIGPAESHPHTPQMPPSTPSSSFLTTKSEDTISKMNDFMRMQILKEGSHFPGPFMTSIGPAESHPHTPQMPPSTPSSSFLTTLKPRLKTEPEEVSIEDSAQSDLKEVMVLNATESFVYEPKEQKKMFHATVATENEVFRVKVFNIDLKEKFTPKKIIAIANYVCRNGFLEVYPFTLVADVNADRNMEIPKGLIRSASVTPKINQLCSQTKGSFVNGVFEVHKKNVRGEFTYYEIQDNTGKMEVVVHGRLTTINCEEGDKLKLTCFELAPKSGNTGELRSVIHSHIKVIKTRKNKKDILNPDSSMETSPDFFF
modifications: DyLight-550, DyLight-650 or Cy5 fluorophore incorporated by maleimide chemistry; label to protein ratio ~1:1
notes: interferon-inducible protein 16 (IFI16), human, full length; FRET assays mixed DyLight-550 and DyLight-650 labelled protein 1:1; microscopy used Cy5-labelled protein; also called IFI16-550; IFI16-650; source: E. coli T7 express cells (NEB), as described in Morrone et al., 2014
stoichiometry N: ≥ 8 protomers per cluster
